From article doi:10.1101/2023.01.10.523494 (bioRxiv, 2023)

Biological target: receptor binding domain (RBD) of the wildtype (WT) SARS-CoV-2 spike protein (SARS-CoV-2, wildtype (sequence as in …))

| Binder | binding result |
| --- | --- |
| mRBD3 (antibody, V domains shown) VH: QVQLQQPGAELVMPGTSVKLSCKASGYIFTSYWMHWVKQRPGQGLEWIGEIDPSDNYTNYNQKFKGKSTLTVDKSSSTAYMQLSSLTSEDSAVYYCARGGLYYYGSSYDAMDYWGQGTSVTVSS VL: DIVMTQAAPSVPVTPGESVSISCRSSKSLLHSNGNTYLYWFLQRPGQSPQLLIYRMSNLASGVPDRFSGSGSGTAFTLRISRVEAEDVGAYYCMQHLEYPFTFGSGTKLEIK | binds |
| mRBD4 (antibody, V domains shown) VH: QVQLQQPGAELVMPGASVKLSCKASGYTFTSYWMHWVKQRPGQGLEWIGEIDPSDSYTNYNQKFKDKSTLTVDKSSSTAYMQLSSLTSEDSAVYYCARGGVYYYGSSHYFDYWGQGTTLTVSS VL: DIVMTQAAPSVPVTPGESVSISCRSSKSLLHSNGNTYLYWFLQRPGQSPQFLIYRMSNLASGVPDRFSGSGSGTAFTLRISRVEAEDVGVYYCMQHLEYPFTFGSGTKLEIK | binds |
| mRBD5 (antibody, V domains shown) VH: QVQLQQPGAELVKPGASVKVSCKASGYTFTSYWMHWVKQRPGQGLEWIGRIHPSDSDTNYNQKFKGKATLTVDKSSSTAYMQLSSLTSEDSAVYYCAIDWDGDYWGQGTTLTVSS VL: DIVMSQSPSSLAVSAGEKVTMSCKSSQSLLNSRTRKNYLAWYQQKPGQSPKLLIYWASTRESGVPDRFTGSGSGTDFTLTISSVQAEDLAVYYCKQSYNLWTFGGGTKLEIK | binds |
| mRBD6 (antibody, V domains shown) VH: QVQLQQPGAELVKPGASVKVSCKASGYTFTSYWMHWVKQRPGQGLEWIGRIHPSDSDTNYNQKFKGKATLTVDKSSSTAYMQLSSLTSEDSAVYYCAMDWDVDYWGQGTTLTVSS VL: DIVMSQSPSSLAVSAGEKVTMSCKSSQSLLNSRTRKNYLAWYQQKPGQSPKLLIYWASTRESGVPDRFTGSGSGTDFTLTISSVQAEDLAVYYCKQSYNLLTFGAGTKLELK | binds |
| mRBD7 (antibody, V domains shown) VH: QVQLKQSGAELVRPGASVKLSCKASGYTFTDYYINWVKQRPGQGLEWIARIYPGSGNTYYNEKFKGKATLTAEKSSSTAYMQLSSLTSEDSAVYFCARYPLYDYDEEDYFDYWGQGTTLTVSS VL: DIQMTQTTSSLSASLGDRVTISCRASQDISNYLNWYQQKPDGTVKLLIYYTSRLHSGVPSRFSGSGSGTDYSLTISNLEQEDIATYFCQQGNTLPYTFGGGTKLEIK | binds |
| mRBD10 (antibody, V domains shown) VH: QVQLKQSGAELVRPGASVKLSCKASGYTFTDYYINWVKQRPGQGLEWIARIYPGSGNTYYNEKFKGKATLTAEKSSSTAYMQLSSLTSEDSAVYFCARDYGSSYVDYFDYWGQGTTLTVSS VL: DIQMTQTTSSLSASLGDRVTISCRASQDISNYLNWYQQKPDGTVKLLIYYTSRLHSGVPSRFSGSGSGTDYSLTISNLEQEDIATYFCQQGNTLPLTFGAGTKLELK | binds |
| mRBD11 (antibody, V domains shown) VH: QVQLQQSGAELARPGASVKLSCKASGYTFISNGISWVKQRTGQGLEWIGEIYPRNGNTYYNEKFKGKATLTADKSSSTAYMELRSLTSEDSAVFFCARDYYYGNFDYWGQGTTLTVSS VL: NIVLTQSPASLAVSLGQRATISCRASESVDSYGNSFMHWYQQKPGQPPKLLIYLASNLESGVPARFSGSGSRTDFTLTIDPVEADDAATYYCQQNNEDPYTFGGGTKLEIK | binds |
| mRBD12 (antibody, V domains shown) VH: QVQLQQSGAELARPGASVKLSCKASGYTFTSYGISWVKQRTGQGLEWIGEIYPRSGNTYYNEKFKGKATLTADKSSSTAYMEVRSLTSEDSAVYFCAREGGYGYVMDYWGQGTSVTVSS VL: DIQMTQTTSSLSASLGDRVTISCRASQDISNYLNWYQQKPDGTVKLLIYYTSRLHSGVPSRFSGSGSGTDYSFTISNLEQEDIATYFCQQGNTLPWTFGGGTKLEIK | binds |
| mRBD14 (antibody, V domains shown) VH: EVKLVESGGGLVQPGGSLSLSCAASGFTFTDYYMSWVRQPPGKALEWLGFIRNKANGYTTEYSASVKGRFTISRDNSQSILYLQMNALRAEDSATYYCARYIRTGWYFDVWGTGTTVTVSS VL: DIVMTQSQKFMSTSVRDRVSITCKASQNVRTAVAWYQQKPGQSPKALIYLASNRHTGVPDRFTGSGSGTDFTLTISNVQSEDLADYFCLQHWNYPWTFGGGTKLEIK | binds |
| mRBD15 (antibody, V domains shown) VH: QIQLVQSGPDLKKPGETVKISCKASGYTFTEYPMHWVKQAPGKGFQWMGMIYTDTGEPTYAEEFKGRFAFSLETSASTAYLQINNLKNEDTSTYFCVRAGPSYAMDYWGQGTSVTVSS VL: NIVLTQSPASLAVSLGQRATISCRASESVDSYGNSFMHWYQQKPGQPPKLLIYLASNVESGVPARFSGSGSRTDFTLTIDPVEADDAATYYCHQINEDPYTFGGGTKLEIK | binds |
| mRBD16 (antibody, V domains shown) VH: QIQLVQSGPELKKPGETVKISCKASGYTLTEYPMHWVKQAPGKGFKWMGMIYTDTGEPTYAEEFKGRFAFSLETSASTAYLQINNLKNEDTATYFCVRAGPSFAMDYWGQGTSVTVSS VL: NIVLTQSPASLAVSLGQRATISCRASESVDSYGNSFMHWYQQKPGQPPKLLIYLASNLESGVPARFSGSGSRTDFTLTIDPVEADDAATYYCQQNNEDPYTFGGGTKLEIK | binds |
| mRBD17 (antibody, V domains shown) VH: QIQLVQSGPELKKPGETVKISCKASGYTLTEYPMHWVKQAPGKGFKWMGMIYTDTGEPTYAEEFKGRFAFSLETSASTAYLQINNLKNEDTATYFCVRAGPSFAMDYWGQGTSVTVSS VL: DIQMTQTTSSLSASLGDRVTISCRASQDISNYLNWYQQKPDGTVKLLIYYTSRLHSGVPSRFSGSGSGTDYSLTISNLEQEDFATYFCQQGNTLPYTFGGGTKLEIK | binds |
| mRBD18 (antibody, V domains shown) VH: QIQLVQSGPELKKPGETVKISCKASGYTFTDYPMHWVQQAPGKGFKWMGMIYTDTGEPTYAEEFKGRFAFSLETSASTAYLQINNLKNEDTATYFCVRWAGYFDYWGQGTTLTVSS VL: DIVLTQSPASLAVSLGQRATISCRASESVDSYGNSFMDWYQQKPGQPPKLLIYRASNLESGIPARFSGSGSRTDFTLIINPVEADDVATYYCQQSNEHPLTFGAGTKLELK | binds |
| mRBD19 (antibody, V domains shown) VH: QIQLVQSGPELKKPGETVKISCKASGYTFTEYPMHWVKQAPGKGFKWMGMIYTDTGEPTYAEEFKGRFAFSLETSASTAYLQINNLKNEDTATYFCVRGGPYYAMDYWGQGTSVTVSS VL: NIVLTQSPASLAVSLGQRATISCRASESVDSYGNSFMHWYQQKPGQPPKLLIYLASNLESGVPARFSGSGSRTDFTLTIDPVEADDAATYYCQQNNEDPWTFGGGTKLEIK | binds |
| mRBD20 (antibody, V domains shown) VH: QIQLVQSGPELKKPGETVKISCKASGYTLTEYPMHWVKQAPGKGFKWMGMIYTDTGEPTYAEEFKGRFAFSLETSASTAYLQINNLKNEDTATYFCVRAGPSYAMDYWGQGTSVTVSS VL: NIVLTQSPASLAMSLGQRATISCRASESVDSYGNSFMHWYQLKPGQPPKLLIYLASNLESGVPARFSGSGSRTDFTLTIDPVEADDAATYYCQQNNEDPYTFGGGTKLEIK | binds |
| mRBD21 (antibody, V domains shown) VH: QIQLVQSGPELKKPGETVKISCKASGYTFTKYPMHWVKQAPGKGFKWMGMIYTDTGEPTYAEEFKGRCAFSLETSASTAYLQINNLKNEDTATYFCVRWGGSYALDYWGQGTSVTVSS VL: DIVLTQSPASLAVSLGQRATISCRASESVDSYGNSFMHWYQQKPGQPPKLLIYRASNLESGIPARFSGSGSRTDFTLTINPVEADDVATYYCQQSNEDPLTFGAGTKLELK | binds |
| mRBD22 (antibody, V domains shown) VH: QIQLVQSGPELKKPGETVKISCKASGYTFTEYPMHWVKQAPGKGFKWMGMIYTDTGEPTYAEEFKGRFAFSLETSASTAYLQINNLKNEDTATYFCVRGGYYYFDYWGQGTTLTVSS VL: NIVLTQSPASLAVSLGQRATISCRASESVDSYGNSFMHWYQQKPGQPPKLLIYLASNLESGVPARFSGSGSRTDFTLTIDPVEADDAATYYCQQNNEDPWTFGGGTKLEIK | binds |
| mRBD23 (antibody, V domains shown) VH: QVQLQQPGAELVRPGSSVKLSCKASGYTFTSYWMHWVKQRPIQGLEWIGNIDPSDSETHYNQKFKDKATLTVDKSSSTAYMQLSSLTSEDSAVYYCTRPGSLRSRGWYFDVWGTGTTVTVSS VL: DIVMTQAAPSVPVTPGESVSISCRSSKSLLHSNGNTYLYWFLQRPGQSPQLLIYRMSNLASGVPDRFSGSGSGTAFTLRISRVEAEDVGVYYCMQHLEYPYTFGGGTKLEIK | binds |
| mRBD24 (antibody, V domains shown) VH: EVQLQQSGPDLVKPGASVKISCKASGYTFTDYYMNWVKQSHGKSLEWIGDINPNNGGTYYNQKFKGKATLTVDKSSSTAYMELRSLTSEDSAVYYCARQLRRWGQGTLVTVSA VL: not shown | binds |
| mRBD25 (antibody, V domains shown) VH: QVQLQQSGPELVKPGASVKISCKASGYAFSNSWMNWVKQRPGKGLEWIGRIYPGDGDTNYNGKFKGKATLTADKSSSTAYMQLSSLTSEDSAVYFCANYYGDYWGQGTTLTVSS VL: QIVLTQSPALMSASPGEKVTMTCSASSSVSYMYWYQQKPRSSPKPWIYLTSNLASGVPARFSGSGSGTSYSLTISSMEAEDAATYYCQQWSSNPYTFGGGTKLEIK | binds |
| hRBD1 (antibody, V domains shown) VH: QVQLVQSGSELKKPGASVKVSCKASGNTLTNHALNWVRQAPGQGLEWMGWINTNTGIPTYAQGFTGRFVFSLDTSVSTAYLQISSLKAEDTAVYYCARVGQTAIAALDDAFDIWGQGTMVTVSS VL: not shown | binds |
| hRBD2 (antibody, V domains shown) VH: QVQLVQSGSELKKPGASVKVSCKASGYTFSNYAINWVRQAPGQGLEWMGWINTNTGHPTYAQGFTGRFVFSLDASVTTAYLQISSLKAEDTAVYYCARVGRTAIAALDDAFDIWGQGTMVTVSS VL: not shown | binds |
| hRBD6 (antibody, V domains shown) VH: QVQLQQWGAGLLKPSETLSLSCAVYGGAFSDYYWSWIRQPPGKGLEWIGEIDLSGSTNYNPSLKSRVTISVDTSKNQFSLKLISVTAADTAVYYCARTHLIGYCSGGSCYSGPDPSNWFDPWGQGTLVTVSS VL: SSELTQDPAVSVALGQTVRITCQGDSLRSYYASWYQQKPGQAPVLVIYGKNNRPSGIPDRFSGSSSGNTASLTITGAQAEDEADYYCNSRDTSGHHPVFGGGTKLTVL | binds |
